In PMC12700550, “DLL4^+ neutrophils promote Notch1-mediated endothelial PANoptosis to exacerbate acute lung injury in sepsis” (The Journal of Clinical Investigation, 2025):
Several values for one entry are separate records, joined by “and”; a condition that tells them apart may be missing. Equal values may be shown once.

B1: eCIRP: extracellular cold-inducible RNA-binding protein; recombinant murine, produced in our laboratory (protein, UniProt P60824 1-172, looked up)
Cold-inducible RNA-binding …: MASDEGKLFVGGLSFDTNEQALEQVFSKYGQISEVVVVKDRETQRSRGFGFVTFENIDDAKDAMMAMNGKSVDGRQIRVDQAGKSSDNRSRGYRGGSAGGRGFFRGGRSRGRGFSRGGGDRGYGGGRFESRSGGYGGSRDYYASRSQGGSYGYRSSGGSYRDSYDSYATHNE

Legend:
C57BL/6 mice, CLP sepsis [1] = assay: Lung injury score (H&E), CLP mice; format: in vivo, mouse; details: 20 h; for lung injury score (Figure 6J): 10 mg/kg NDI, score 0 to 1, individual values
Experimental: Sepsis was induced in mice by cecal ligation and puncture (CLP) as described previously ([45], [46]). Mice were anesthetized with isoflurane to a surgical plane and placed in a supine position. CLP was performed through a midline laparotomy. The abdomen was shaved and disinfected. Through a 2 cm midline incision, the cecum was exposed and then ligated with a 4-0 silk suture 1 cm proximal from the distal cecal extremity. […] A small amount of cecal content was extruded through both holes, and the ligated cecum was returned to the peritoneal cavity. The wound was closed in layers. […] A small amount of cecal content was extruded. […] Vehicle groups received an equivalent volume of PBS, while treatment groups received NDI 10 mg/kg in […] PBS via retro-orbital injection after CLP. This dose was chosen primarily on the basis of our laboratory’s prior experience, we have consistently used this dose in mouse CLP models with reproducible efficacy and without observable toxicity ([39], [44]). Sham-operated animals underwent a laparotomy without CLP. After closure, the mice received a subcutaneous injection of 0.5 mL of normal saline to overcome surgery-induced dehydration. […] All mice were subcutaneously injected with a single dose of 0.1 mg/kg buprenorphine after CLP. Lung tissues were fixed in 10% formalin before being embedded in paraffin. Blocks were cut into 5 μm sections and stained with H&E. Slides were evaluated under light microscopy to assess the degree of lung injury. Scoring was done using a system created by the American Thoracic Society ([47]). Scores ranged from 0 to 1 and were based on proteinaceous debris in the airspaces, the degree of septal thickening, and neutrophil infiltration in the alveolar and interstitial spaces. The average score per field was calculated at ×200 original magnification.

C57BL/6 mice, CLP sepsis [2] = assay: Evans blue dye lung extravasation, CLP mice; format: in vivo, mouse; details: 20 h; for Evans blue dye, EBD/dry lung tissue (Figure 6L): 10 mg/kg NDI, EBD 20 mg/kg, individual mice
Experimental: Sepsis was induced in mice by cecal ligation and puncture (CLP) as described previously ([45], [46]). Mice were anesthetized with isoflurane to a surgical plane and placed in a supine position. CLP was performed through a midline laparotomy. The abdomen was shaved and disinfected. Through a 2 cm midline incision, the cecum was exposed and then ligated with a 4-0 silk suture 1 cm proximal from the distal cecal extremity. […] A small amount of cecal content was extruded through both holes, and the ligated cecum was returned to the peritoneal cavity. The wound was closed in layers. […] A small amount of cecal content was extruded. […] Vehicle groups received an equivalent volume of PBS, while treatment groups received NDI 10 mg/kg in […] PBS via retro-orbital injection after CLP. This dose was chosen primarily on the basis of our laboratory’s prior experience, we have consistently used this dose in mouse CLP models with reproducible efficacy and without observable toxicity ([39], [44]). Sham-operated animals underwent a laparotomy without CLP. After closure, the mice received a subcutaneous injection of 0.5 mL of normal saline to overcome surgery-induced dehydration. […] All mice were subcutaneously injected with a single dose of 0.1 mg/kg buprenorphine after CLP. Lung vascular leakage was quantified using the Evans blue dye–labeled (EBD-labeled) albumin extravasation assay ([48]). […] Sigma-Aldrich) via retro-orbital injection. […] The whole lung was dehydrated for 48 hours at 60°C, immersed in formamide (1 mL/g wet weight; Sigma-Aldrich) at 37°C for 48 hours, and centrifuged at 5,000g for 30 minutes. The amount of extracted EBD in the supernatant was quantified by spectrophotometry. The concentration of extravasated EBD-albumin in lung homogenates was expressed as nanograms EBD per milligram of dry lung tissue. Lung water content was calculated as (wet weight – dry weight)/wet weight %.

DLL3 = DLL3 mRNA in eCIRP-treated BMDNs, qPCR; format: cell-based, mouse; details: for DLL3 mRNA: DLL3-CIRP
Experimental: mRNA was extracted from lung tissues with TRIzol reagent (Invitrogen, Thermo Fisher Scientific). An equal amount ([…]) of mRNA was reverse-transcribed into cDNA using the reverse transcriptase enzyme (Invitrogen, Thermo Fisher Scientific). qPCR was performed from the diluted cDNA templates with forward and reverse primers (Supplemental Table 4) and SYBR Green PCR Master Mix (Applied Biosystems, Thermo Fisher Scientific) using an Applied Biosystems 7300 real-time PCR machine. Mouse β-actin served as an internal control gene for normalization. Relative expression of mRNA was represented as fold change in comparison with the sham group.
BMDNs (1 × 10^6) were treated with eCIRP (1 μg/mL) for 12 hours, and DLL1, DLL3, and DLL4 were analyzed by qPCR.

[3] = DLL4^+ neutrophil-injected CLP mice, 10 mg/kg

Molecule	effect on lung injury (C57BL/6 mice, CLP sepsis [1]; [3])	lung injury score (Figure 6J) (C57BL/6 mice, CLP sepsis [1]; DLL4^+ neutrophils + CLP)	lung injury score (Figure 6J) (C57BL/6 mice, CLP sepsis [1]; DLL4^– neutrophils + CLP)	effect on Evans blue dye content (C57BL/6 mice, CLP sepsis [2]; [3])	Evans blue dye, EBD/dry lung tissue (Figure 6L) (C57BL/6 mice, CLP sepsis [2]; DLL4^+ neutrophils + CLP)	Evans blue dye, EBD/dry lung tissue (Figure 6L) (C57BL/6 mice, CLP sepsis [2]; DLL4^– neutrophils + CLP)	effect on DLL3 expression (DLL3; BMDNs, eCIRP 1 μg/mL, 12 h)	DLL3 mRNA (DLL3; replicate 1)	DLL3 mRNA (DLL3; replicate 2)	DLL3 mRNA (DLL3; replicate 3)	DLL3 mRNA (DLL3; replicate 4)	DLL3 mRNA (DLL3; replicate 5)	DLL3 mRNA (DLL3; replicate 6)
ECAGSPCHNGGTCEDGI [NDI]	significantly lower lung injury scores	0.52 and 0.49 and 0.54 and 0.51 and 0.53	0.58 and 0.44 and 0.52 and 0.48 and 0.54	significantly attenuated these effects, reducing both lung water content and Evans blue dye content	94.3739 nanograms EBD per milligram of dry lung tissue and 81.6499 nanograms EBD per milligram of dry lung tissue and 102.841 nanograms EBD per milligram of dry lung tissue and 95.8364 nanograms EBD per milligram of dry lung tissue and 67.7799 nanograms EBD per milligram of dry lung tissue and 56.8397 nanograms EBD per milligram of dry lung tissue and 66.2061 nanograms EBD per milligram of dry lung tissue and 49.7845 nanograms EBD per milligram of dry lung tissue and 71.2396 nanograms EBD per milligram of dry lung tissue	62.3234 nanograms EBD per milligram of dry lung tissue and 74.8524 nanograms EBD per milligram of dry lung tissue and 79.6398 nanograms EBD per milligram of dry lung tissue and 73.406 nanograms EBD per milligram of dry lung tissue and 63.9328 nanograms EBD per milligram of dry lung tissue and 50.0167 nanograms EBD per milligram of dry lung tissue and 66.1099 nanograms EBD per milligram of dry lung tissue and 61.0318 nanograms EBD per milligram of dry lung tissue and 57.5122 nanograms EBD per milligram of dry lung tissue							
B1							no significant induction of DLL1 or DLL3	0.2832	1.673	0.009923	0.01002	0.02772	0.1715
